Laboratory results taken from publication PMC5912448.

Target: human β-Klotho extracellular domain (aa 1–992) His6 (human) (UniProt Q86Z14)
Experiment: BLI; Octet RED; biotinylated β-Klotho ECD His6 (10 μg/ml) loaded onto streptavidin biosensors; analyte at various concentrations in kinetics buffer, 5 min association, 10 min dissociation; globally fitted 1:1 binding model

Chain of UniProt Q86Z14 (Q86Z14 1-992): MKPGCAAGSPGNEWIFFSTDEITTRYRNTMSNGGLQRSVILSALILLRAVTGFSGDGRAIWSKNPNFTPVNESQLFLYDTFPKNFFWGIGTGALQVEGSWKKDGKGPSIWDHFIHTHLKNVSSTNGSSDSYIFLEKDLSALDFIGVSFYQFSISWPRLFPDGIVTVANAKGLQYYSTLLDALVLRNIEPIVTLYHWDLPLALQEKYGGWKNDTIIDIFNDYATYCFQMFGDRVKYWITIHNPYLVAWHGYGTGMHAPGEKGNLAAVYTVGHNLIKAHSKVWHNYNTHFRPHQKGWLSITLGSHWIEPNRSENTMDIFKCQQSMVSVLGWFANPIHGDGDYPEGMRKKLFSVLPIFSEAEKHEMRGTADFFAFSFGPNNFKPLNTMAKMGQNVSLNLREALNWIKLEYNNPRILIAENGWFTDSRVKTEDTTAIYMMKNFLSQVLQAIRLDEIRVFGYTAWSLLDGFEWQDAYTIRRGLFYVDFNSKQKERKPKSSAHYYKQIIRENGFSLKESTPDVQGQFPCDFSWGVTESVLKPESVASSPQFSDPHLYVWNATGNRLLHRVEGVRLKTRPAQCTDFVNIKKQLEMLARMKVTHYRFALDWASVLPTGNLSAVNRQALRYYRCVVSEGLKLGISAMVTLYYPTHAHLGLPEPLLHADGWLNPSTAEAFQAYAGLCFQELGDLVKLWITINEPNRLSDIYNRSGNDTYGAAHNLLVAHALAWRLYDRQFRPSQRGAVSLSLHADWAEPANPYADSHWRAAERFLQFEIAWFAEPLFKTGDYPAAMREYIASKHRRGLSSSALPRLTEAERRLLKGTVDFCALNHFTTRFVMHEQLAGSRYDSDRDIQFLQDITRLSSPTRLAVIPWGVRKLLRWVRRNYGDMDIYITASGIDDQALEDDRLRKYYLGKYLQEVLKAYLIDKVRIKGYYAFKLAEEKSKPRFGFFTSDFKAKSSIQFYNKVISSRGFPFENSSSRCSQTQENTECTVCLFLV

fibroblast growth factor 21 (ligand)
Kd: 3.55 nM
